Experimental data published in patent US20110183342A1.

Target: HLA-B1501 (purified MHC class I molecule) (human)
Assay: competition with a radiolabeled probe peptide for purified MHC class I

Work on AVINTTCNYGQ (modifications not checked) [Mtb8.4 5-15 peptide …] yielded an IC50 of 10 nM.
